In assay [1] the target is T1, recombinant human M-CSF (human, UniProt P09603 33-190, limits assumed).
T1 sequence: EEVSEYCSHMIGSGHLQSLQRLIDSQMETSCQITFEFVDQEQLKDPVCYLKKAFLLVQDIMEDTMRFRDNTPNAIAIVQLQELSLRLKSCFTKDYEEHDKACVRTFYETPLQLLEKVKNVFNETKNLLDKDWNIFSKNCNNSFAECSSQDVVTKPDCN
In words: cell-based or functional assay.

Assay [2] addresses T1, recombinant human M-CSF. In words: SPR (Biacore), M-CSF amine-coupled on CM5 chip, antibody flowed. Here is the method: (§1) To determine the relative differences in the binding affinity of intact antibodies by Biacore analysis, M-CSF was immobilized onto CMS biosensor chip via amine coupling. 0.05 μg/ml M-CSF in 10 mM Na-Acetate pH 4.0 was injected at 1 μl/min for 5 minutes to achieve RL=6-12 RU. Test antibody or Fab fragments were flowed over the modified biosensor surface at varying concentrations ranging from 100 nM to 1.5 nM in 2-fold dilutions. Test antibodies were diluted in 0.01 M HEPES pH 7.4, 0.15 M NaCL, 3 mM EDTA, 0.005% Surfactant P20 (HBS-EP) and all experiments were done at 25° C. Each concentration point and buffer blanks were run in triplicate, and data was collected over 3 minutes of association and 8 minutes of dissociation. Kinetic and affinity constants were determined using Biaevaluation software with a 1:1 interaction model/global fit.
In general terms: In SPR one partner is held on a chip, and binding of the other changes the refractive index at the surface.

Assay [3] concerns the target T1, recombinant human M-CSF. In words: SPR (Biacore), M-CSF amine-coupled on CM5 chip, antibody flowed, 25 C, 1:1 model, n = 5. How it is done:
as §1

The target of assay [4] is T1, recombinant human M-CSF. In words: SPR (Biacore), M-CSF amine-coupled on CM5 chip, antibody flowed 100 nM to 1.5 nM, 25 C, 1:1 model, n = 5. How it is done:
as §1

Assay [5] addresses T1, recombinant human M-CSF. In words: SPR (Biacore), M-CSF amine-coupled on CM5 chip, antibody flowed 100 nM to 1.5 nM, 25 C, 1:1 model. Here is the method: as §1
Assay [6] concerns the target T1, recombinant human M-CSF. In words: SPR (Biacore), M-CSF amine-coupled on CM5 chip, antibody flowed, 25 C, 1:1 model. Here is the method:
as §1

In assay [7] the target is T1, recombinant human M-CSF. In words: SPR (Biacore), M-CSF amine-coupled on CM5 chip, antibody flowed, 25 C, 1:1 model, n = 2. Here is the method: as §1
Assay [8] addresses T1, recombinant human M-CSF. In words: SPR (Biacore), M-CSF amine-coupled on CM5 chip, antibody flowed 100 nM to 1.5 nM, 25 C, 1:1 model, n = 2. Here is the method: as §1
Assay [9] deals with T1, recombinant human M-CSF. In words: SPR (Biacore), M-CSF amine-coupled on CM5 chip, antibody or Fab flowed, 25 C, 1:1 model. Here is the method:
Specifically, M-CSF was immobilized onto CM5 biosensor chip via amine coupling. 0.05 μg/ml M-CSF in 10mM Na Acetate pH 4.0 was injected at 1 μl/min for 5 minutes to achieve RL=6-12 RU. Test antibody (or Fab fragment) were flowed over the modified biosensor surface at varying concentrations. Test antibodies were diluted in 0.01 M HEPES pH 7.4, 0.15 M NaCL, 3 mM EDTA, 0.005% Surfactant P20 (HBS-EP) and all experiments were done at 25° C. Kinetic and affinity constants were determined using Biaevaluation software (Biacore) with a 1:1 interaction model/global fit.

Assay [10] concerns the target T1, recombinant human M-CSF. In words: SPR (Biacore), antibody captured on anti-mouse Fc chip, M-CSF flowed, 25 C, 1:1 model. Here is the method:
Binding properties of the aforementioned antibodies were analyzed using Biacore analyses. […] The aforementioned antibodies were then captured on the anti-mouse Fc/CM5 biosensor chip at 1.5 μg/ml for 3 min at 2 μl/min. MCSF was flowed over the modified biosensor surface at varying concentrations (Rmax ˜15). Test antibodies and antigen were diluted in 0.01 M HEPES pH 7.4, 0.15 M NaCL, 3 mM EDTA, 0.005% Surfactant P20 (HBS-EP). All experiments were performed at 25° C. Kinetic and affinity constants were determined using Biaevaluation software (Biacore) with a 1:1 interaction model/global fit.

Substitutions are numbered along the chain they refer to.

B1: heRX1-1.G2 (antibody)
heavy: DVQLQESGPGLVKPSQTLSLTCTVTDYSITSDYAWNWIRQFPGKKLEWMGYISYSGSTSYNPSLKSRITISRDTSKNQFSLQLNSVTAADTATYYCASFDYAHAMDYWGQGTTVTVSS
light: EIVLTQSPGTLSVSPGERVTFSCRASQSIGTSIHWYQQKTGQSPRLLIKYASERISGIPDRFSGSGSGTDFTLTISRVESEDFADYYCQQINSWPTTFGQGTKLEIKRT
notes: The legends may have 45 and 48 exchanged; also called heRX1-1-IgG2; heRX1-1.IgG2; not shown: human Gamma-2 heavy chain constant region; human Kappa light chain constant region (the printed V regions end in EIKRT, which may overlap its start)
What is called Kd is a measure of binding affinity in units of concentration. Usually koff stands for the rate constant with which the complex falls apart. The kon is the second-order rate constant of association. Consider B1, for which, in the assay with recombinant human M-CSF [1], the “IC50 Fold Loss” value is 2.8 fold. In the assay with recombinant human M-CSF [2], the “fold decrease in binding affinity compared to the parent murine antibody” value (shortened to “fold decrease in binding affinity”) was not below 7 fold. In the assay with recombinant human M-CSF [3], the Kd is 5.9 nM, the koff came out at 0.00137 s⁻¹ and the kon came out at 236000 M⁻¹ s⁻¹. Further, in the assay with recombinant human M-CSF [4], the dissociation constant Kd was found to be 5.9 nM, the koff came out at 0.00137 s⁻¹ and the kon is 236000 M⁻¹ s⁻¹.

B2: heRX1-1.G1 (antibody)
heavy: not shown
light: B1 light
notes: heavy pMXC29 Low Risk (Kabat), Gamma 1; also called heRX1-1-IgG1; heRX1-1.IgG1; not shown: human Kappa light chain constant region (the printed V regions end in EIKRT, which may overlap its start)
As for B2, in the assay with recombinant human M-CSF [5], the Kd was determined as 0.95 nM, the koff stood at 0.000238 s⁻¹ and the kon turned out to be 250000 M⁻¹ s⁻¹.

B3: heRX1-7.G2 (antibody, V domains shown)
VH: B1 heavy
VL: EIVLTQSPGTLSVSPGERVTFSCRASQSIGTSIHWYQQKTGQAPRLLIKYASESISGIPDRFSGSGSGTDFTLTISRVESEDFADYYCQQINSWPTTFGQGTKLEIK
notes: copies: 2 + 2
With B3, the “IC50 Fold Loss” value with recombinant human M-CSF [1] was found to be 6.1 fold. Moreover, the “fold decrease in binding affinity” value in the assay with recombinant human M-CSF [2] was not below 7 fold. Also, in the assay with recombinant human M-CSF [6], the Kd was determined as 9.5 nM, the koff came out at 0.00149 s⁻¹ and the kon was found to be 157000 M⁻¹ s⁻¹.

B4: heRX1-10.G2 (antibody, V domains shown)
VH: B1 heavy with D1Q, T25S, K45G, T93V
VL: DIVLTQSPAFLSVTPGEKVTFTCQASQSIGTSIHWYQQKTDQAPKLLIKYASESISGIPSRFSGSGSGTDFTLTISSVEAEDAADYYCQQINSWPTTFGGGTKLEIKR
notes: not shown: human Gamma-2 heavy chain constant region; human Kappa light chain constant region (the V region entry may overlap its start)
B4: in the assay with recombinant human M-CSF [7], the Kd stood at 6.3 nM, the koff was 0.0011 s⁻¹ and the kon is 173000 M⁻¹ s⁻¹. In the assay with recombinant human M-CSF [1], the “IC50 Fold Loss” value is 2.2 fold. Moreover, the “fold decrease in binding affinity” value with recombinant human M-CSF [2] is not below 7 fold. Moreover, in the assay with recombinant human M-CSF [8], the Kd came out at 6.3 nM, the koff stood at 0.0011 s⁻¹ and the kon turned out to be 173000 M⁻¹ s⁻¹.

B5: rRX1 Fab (mouse) (Fab, V domains shown)
VH: B1 heavy with T17S, K44N, T69S, S71T, S80F, A88T, A89E, T113S
VL: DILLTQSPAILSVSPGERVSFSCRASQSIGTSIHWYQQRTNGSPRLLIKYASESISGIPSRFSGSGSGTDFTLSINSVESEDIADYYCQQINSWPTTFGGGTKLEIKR
notes: Fab fragment; also called Fab fragment of RX1
For B5, in the assay with recombinant human M-CSF [9], the Kd came to 10.8 nM, the koff stood at 0.00303 s⁻¹ and the kon came out at 281000 M⁻¹ s⁻¹.

B6: heRX1-1.G4 (antibody)
heavy: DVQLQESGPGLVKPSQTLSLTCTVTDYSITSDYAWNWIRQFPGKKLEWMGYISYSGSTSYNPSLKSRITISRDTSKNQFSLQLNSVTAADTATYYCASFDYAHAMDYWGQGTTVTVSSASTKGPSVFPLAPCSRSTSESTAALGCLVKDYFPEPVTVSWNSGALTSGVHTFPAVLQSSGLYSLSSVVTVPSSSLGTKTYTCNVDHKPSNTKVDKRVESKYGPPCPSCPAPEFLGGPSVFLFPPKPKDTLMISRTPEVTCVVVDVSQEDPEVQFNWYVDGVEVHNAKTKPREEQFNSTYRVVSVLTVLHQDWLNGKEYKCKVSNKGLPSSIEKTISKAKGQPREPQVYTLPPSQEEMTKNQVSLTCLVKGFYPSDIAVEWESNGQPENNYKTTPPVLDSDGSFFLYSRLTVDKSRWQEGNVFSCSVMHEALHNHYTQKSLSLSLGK
light: B1 light
notes: also called heRX1-1-IgG4; heRX1-1.IgG4; not shown: human Kappa light chain constant region (the printed V regions end in EIKRT, which may overlap its start)
In the case of B6, in the assay with recombinant human M-CSF [5], the Kd is 1.42 nM, the koff is 0.000293 s⁻¹ and the kon amounted to 207000 M⁻¹ s⁻¹.

B7: heRX1-4.G2 (antibody, V domains shown)
VH: B1 heavy with D1Q, T25S, K45G, T93V
VL: EIVLTQSPGTLSVSPGERVTFSCRASQSIGTSIHWYQQKTGQAPRLLIKYASERATGIPDRFSGSGSGTDFTLTISRVESEDFADYYCQQINSWPTTFGQGTKLEIKR
notes: not shown: human Gamma-2 heavy chain constant region; human Kappa light chain constant region (the printed V regions end in EIKRT, which may overlap its start)
Regarding B7, the “IC50 Fold Loss” value with recombinant human M-CSF [1] came to 4.6 fold. Besides, in the assay with recombinant human M-CSF [2], the “fold decrease in binding affinity” value is not below 7 fold. In the assay with recombinant human M-CSF [6], the Kd was 4.6 nM, the koff was 0.00108 s⁻¹ and the kon came to 238000 M⁻¹ s⁻¹.

B8: heRX1-8.G2 (antibody, V domains shown)
VH: B1 heavy with D1Q, T25S, K45G, T93V
VL: B3 VL
notes: copies: 2 + 2
Turning to B8, the “IC50 Fold Loss” value with recombinant human M-CSF [1] came out at 5.9 fold. Further, in the assay with recombinant human M-CSF [2], the “fold decrease in binding affinity” value is not below 7 fold. Moreover, in the assay with recombinant human M-CSF [6], the Kd is 9.8 nM, the koff came to 0.00148 s⁻¹ and the on-rate (kon) is 152000 M⁻¹ s⁻¹.

B9: heRX1-3.G2 (antibody, V domains shown)
VH: B1 heavy
VL: B7 VL
notes: as for B7
Consider B9, for which, in the assay with recombinant human M-CSF [1], the “IC50 Fold Loss” value was 5.3 fold. Moreover, the “fold decrease in binding affinity” value in the assay with recombinant human M-CSF [2] was not below 7 fold. In the assay with recombinant human M-CSF [6], the Kd came out at 5.9 nM, the koff was determined as 0.00118 s⁻¹ and the kon was 201000 M⁻¹ s⁻¹.

B10: heRX1-9.G2 (antibody, V domains shown)
VH: B1 heavy
VL: B4 VL
notes: as for B4
Turning to B10, the “IC50 Fold Loss” value in the assay with recombinant human M-CSF [1] was determined as 3.6 fold. Besides, the “fold decrease in binding affinity” value with recombinant human M-CSF [2] was not below 7 fold. Further, in the assay with recombinant human M-CSF [6], the Kd came to 7.2 nM, the koff was 0.00144 s⁻¹ and the kon amounted to 200000 M⁻¹ s⁻¹.

B11: heRX1-5.G2 (antibody, V domains shown)
VH: B1 heavy
VL: B7 VL with A43S, R54S, A55I, T56S
notes: as for B7
As for B11, the “IC50 Fold Loss” value in the assay with recombinant human M-CSF [1] was determined as 6.5 fold. Also, the “fold decrease in binding affinity” value with recombinant human M-CSF [2] was not below 7 fold. In the assay with recombinant human M-CSF [6], the Kd turned out to be 7.4 nM, the koff was found to be 0.00129 s⁻¹ and the kon stood at 175000 M⁻¹ s⁻¹.

B12: heRX1-2.G2 (antibody, V domains shown)
VH: B1 heavy with D1Q, T25S, K45G, T93V
VL: B7 VL with A43S, A55I, T56S
notes: as for B7
With B12, in the assay with recombinant human M-CSF [1], the “IC50 Fold Loss” value amounted to 3.1 fold. In addition, the “fold decrease in binding affinity” value in the assay with recombinant human M-CSF [2] is not below 7 fold. For the same molecule, in the assay with recombinant human M-CSF [6], the Kd worked out at 7.6 nM, the koff was determined as 0.00165 s⁻¹ and the kon came out at 218000 M⁻¹ s⁻¹.

B13: murine monoclonal antibody 5H4 (antibody, mouse IgG1, kappa, V domains shown)
VH: EIQLQQSGPELVKTGTSVKISCKASGYSFTGYFMHWVKQSHGKSLEWIGYISCYNGDTNYNQNFKGKATFTVDTSSSTAYMQFNSLTSEDSAVYYCAREGGNYPAYWGQGTLVTVSA
VL: DIVMTQSHKFMSTSVGDRVTITCKASQNVGTAVTWYQQKPGQSPKLLIYWTSTRHAGVPDRFTGSGSGTDFTLTISDVQSEDLADYFCQQYSSYPLTFGAGTKLELKR
With B13, in the assay with recombinant human M-CSF [10], the Kd was 3 nM, the koff stood at 0.00177 s⁻¹ and the kon amounted to 594000 M⁻¹ s⁻¹. Further, in the assay with recombinant human M-CSF [9], the Kd worked out at 9.9 nM, the koff is 0.00126 s⁻¹ and the kon came to 127000 M⁻¹ s⁻¹.

B14: murine monoclonal antibody MC3 (antibody, V domains shown)
VH: DVQLQESGPGLVKPSQSLSLTCTVTGYSITSDYAWNWIRQFPGNKLEWMGYISYSGSTSYNPSLKSRISITRDTSKNQFFLQLNSVTTEDTATYYCARLETWLFDYWGQGTTLTVSS
VL: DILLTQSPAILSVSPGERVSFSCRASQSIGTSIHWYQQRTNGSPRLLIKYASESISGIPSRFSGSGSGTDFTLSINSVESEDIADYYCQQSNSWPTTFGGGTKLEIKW
notes: Hybridoma ATCC PTA-6264
Turning to B14, in the assay with recombinant human M-CSF [10], the Kd was found to be 0.27 nM, the koff stood at 0.000193 s⁻¹ and the kon is 704000 M⁻¹ s⁻¹.

For the origin of these results see patent US20170152311A1 (published 2017).
